Legend:
IL10 receptor = IL10 receptor (UniProt Q13651); assay: cell-based or functional assay
IL4 (type II) receptor = IL4 (type II) receptor (UniProt P24394); assay: cell-based or functional assay
Sequence of IL4 (type II) receptor (P24394 26-825 limits assumed, chain 1 of 2): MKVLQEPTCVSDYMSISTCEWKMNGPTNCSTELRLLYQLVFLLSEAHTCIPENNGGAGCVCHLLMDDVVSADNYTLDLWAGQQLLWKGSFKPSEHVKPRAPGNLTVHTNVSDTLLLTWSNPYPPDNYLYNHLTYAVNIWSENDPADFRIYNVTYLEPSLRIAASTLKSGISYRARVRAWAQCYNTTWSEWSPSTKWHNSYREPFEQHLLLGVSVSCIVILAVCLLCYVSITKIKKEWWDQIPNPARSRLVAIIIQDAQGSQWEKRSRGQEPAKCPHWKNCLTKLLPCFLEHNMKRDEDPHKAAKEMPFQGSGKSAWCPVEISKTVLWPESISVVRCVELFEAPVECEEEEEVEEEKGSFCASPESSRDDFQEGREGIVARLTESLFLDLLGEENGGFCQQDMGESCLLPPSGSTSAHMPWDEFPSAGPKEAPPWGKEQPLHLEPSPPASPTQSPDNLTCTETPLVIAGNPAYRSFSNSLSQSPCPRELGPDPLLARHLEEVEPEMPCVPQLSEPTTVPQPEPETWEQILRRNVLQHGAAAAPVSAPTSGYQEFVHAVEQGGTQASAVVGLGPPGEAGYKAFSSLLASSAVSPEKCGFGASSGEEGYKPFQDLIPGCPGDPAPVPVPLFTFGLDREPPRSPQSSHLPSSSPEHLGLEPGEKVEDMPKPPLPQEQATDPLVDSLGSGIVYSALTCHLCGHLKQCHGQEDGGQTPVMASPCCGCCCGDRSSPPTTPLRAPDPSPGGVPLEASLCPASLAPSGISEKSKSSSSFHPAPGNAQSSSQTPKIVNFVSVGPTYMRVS
Sequence of IL4 (type II) receptor (P78552 22-427 limits assumed, chain 2 of 2, further chain): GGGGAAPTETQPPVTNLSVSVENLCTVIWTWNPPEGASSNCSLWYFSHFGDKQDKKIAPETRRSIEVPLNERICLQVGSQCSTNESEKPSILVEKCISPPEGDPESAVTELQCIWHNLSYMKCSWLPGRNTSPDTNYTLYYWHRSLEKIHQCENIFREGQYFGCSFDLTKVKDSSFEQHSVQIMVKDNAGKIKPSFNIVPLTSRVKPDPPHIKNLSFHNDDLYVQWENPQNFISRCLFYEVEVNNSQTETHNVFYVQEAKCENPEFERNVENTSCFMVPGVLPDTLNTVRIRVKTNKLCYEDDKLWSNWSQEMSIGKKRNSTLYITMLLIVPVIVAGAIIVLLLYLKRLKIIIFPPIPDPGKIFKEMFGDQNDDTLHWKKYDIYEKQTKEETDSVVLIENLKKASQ

Sequence of IL10 receptor (Q13651 22-578 limits assumed, chain 1 of 2): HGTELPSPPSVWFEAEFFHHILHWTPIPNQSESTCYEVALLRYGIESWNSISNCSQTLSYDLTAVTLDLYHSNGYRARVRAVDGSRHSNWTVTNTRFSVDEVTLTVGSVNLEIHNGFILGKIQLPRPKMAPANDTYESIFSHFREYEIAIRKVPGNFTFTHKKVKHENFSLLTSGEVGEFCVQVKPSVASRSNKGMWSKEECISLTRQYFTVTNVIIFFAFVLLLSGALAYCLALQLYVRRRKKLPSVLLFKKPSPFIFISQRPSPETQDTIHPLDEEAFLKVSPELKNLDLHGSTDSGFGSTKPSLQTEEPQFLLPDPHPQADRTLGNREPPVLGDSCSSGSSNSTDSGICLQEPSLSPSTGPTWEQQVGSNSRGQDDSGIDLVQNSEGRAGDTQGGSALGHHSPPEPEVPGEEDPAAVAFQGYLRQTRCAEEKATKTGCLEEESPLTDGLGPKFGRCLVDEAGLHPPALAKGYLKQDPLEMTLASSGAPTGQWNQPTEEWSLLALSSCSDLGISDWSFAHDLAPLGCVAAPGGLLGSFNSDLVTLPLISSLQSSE
Sequence of IL10 receptor (Q08334 20-325 limits assumed, chain 2 of 2, further chain): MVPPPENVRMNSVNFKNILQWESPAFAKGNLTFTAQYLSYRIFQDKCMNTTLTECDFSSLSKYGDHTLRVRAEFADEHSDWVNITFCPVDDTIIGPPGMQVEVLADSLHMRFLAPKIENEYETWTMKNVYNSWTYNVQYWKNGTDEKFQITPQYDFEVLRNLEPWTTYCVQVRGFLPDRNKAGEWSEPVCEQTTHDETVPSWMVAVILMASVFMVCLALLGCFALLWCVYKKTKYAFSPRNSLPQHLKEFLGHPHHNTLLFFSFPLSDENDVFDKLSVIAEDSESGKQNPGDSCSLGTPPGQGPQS

Row | Substance | HEK-Blue IL10 EC50 (STAT-3 mediated SEAP expression) (IL10 receptor) | HEK-Blue IL4/13 EC50 (STAT6-induced SEAP expression) (IL4 (type II) receptor)
1 | IL10 (from UniProt P22301 19-178) (ligand) | 0.0264 nM | 
2 | IL13 (from UniProt P35225 33-146) (ligand) |  | 0.033 nM
